Target: CcpA (Streptococcus pneumoniae D39) (UniProt A0A0H2ZQ65)
Assay: EMSA
Conditions: EMSA: 10 mM Tris-HCl pH 7.4, 1 mM DTT, 1 mM EDTA, 50 mM KCl, 5% glycerol, 50 ug/mL BSA, 0.05% NP-40, 20 min 37 C; footprinting binding 30 min 25 C

GCTACAAACTGTTCCAATTTAACTGTGTTTTTCATAATAAAATCTCCTAAAATGTTTTTTCTTGTAAGCTAACTTACAAAAACCATTATACAAAATGGAATTTCGTTTTAGATAAAATTCTCTCAACTGTCATTTTTTTCTCCCAAAGTGTACTTTTTTAAGAAAAAAGCCGGGAAAATTCCCAGCTTTGCTATTATATTGATCCCAGCAGGATTCGAACCTGCGACCGTTCGCTTAGAAGGCGAATGCTCTATC (double strand) [P240 (PcomCDE)]
binding: binds

Reference: PMC10269683
